# From PMC4706430 (2016)
# Biological target: kallikrein (human, UniProt P03952 20-638)
# Sequence (P03952 20-638): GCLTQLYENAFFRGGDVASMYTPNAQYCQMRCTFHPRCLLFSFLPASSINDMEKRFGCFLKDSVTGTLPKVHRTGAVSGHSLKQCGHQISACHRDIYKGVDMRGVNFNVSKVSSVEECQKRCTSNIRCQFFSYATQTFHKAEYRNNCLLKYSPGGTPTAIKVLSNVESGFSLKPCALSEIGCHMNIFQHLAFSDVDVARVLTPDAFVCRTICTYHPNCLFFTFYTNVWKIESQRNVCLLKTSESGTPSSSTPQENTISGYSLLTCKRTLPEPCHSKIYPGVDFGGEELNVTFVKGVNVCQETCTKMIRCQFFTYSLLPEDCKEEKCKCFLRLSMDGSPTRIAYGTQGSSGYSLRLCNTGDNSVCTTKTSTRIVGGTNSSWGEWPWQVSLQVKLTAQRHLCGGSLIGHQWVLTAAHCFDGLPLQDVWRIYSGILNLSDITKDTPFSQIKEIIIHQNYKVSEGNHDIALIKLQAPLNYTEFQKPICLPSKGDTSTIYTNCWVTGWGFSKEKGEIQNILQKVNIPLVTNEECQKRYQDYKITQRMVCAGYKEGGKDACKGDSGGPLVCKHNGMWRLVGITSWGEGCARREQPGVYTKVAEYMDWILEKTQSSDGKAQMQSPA
binder,measurement,value
"Boophilin (natural protein, N-terminus blocked (Edman degradation)) QRNGFCRLPADEGICKALIPRFYFNTETGKCTMFSYGGCGGNENNFETIEDCQKACGAPERVSDFEGADFKTGCEPAADSGSCAGQLERWFYNVRSGECETFVYGGCGGNDNNYESEEECELVCKNM",Ki,919 nM
